Laboratory results from patent US20160304573A1, “FIBROMODULIN PEPTIDE” (The Regents of the University of California, priority 2010, published 2016).

How the values were obtained:
TGF-β1 [1] = molecular target: T1, TGF-β1 (Homo sapiens, UniProt P01137); assay: ELISA analysis of binding with TGF-β1; settings: BSA as negative control; FIG. 3
Text: Bovine serum albumin (BSA) was used as negative control.
SUMO-CAT from the recombinant bacteria harboring control plasmid pET_SUMO/CAT was used as negative control. To the knowledge of inventors, the TGF-binding sites within FMOD have not been reported.

Rat-2 fibroblasts = assay: Z-axes series sequential images, relative height of nodules; format: cell-based; settings: FMOD and TGF-β1 treatment
Text: But for the nodules formed with FMOD and TGF-β1 treatment (yellow arrows), the cells were stacked on top of one another to a height of about 48 μm.

Rat-2 cells = assay: H&E morphology of Rat-2 cells; format: cell-based
Protocol: Exemplary tests were performed to better delineate cell morphology.

TGF-β3 = molecular target: T2, TGF-β3 (Homo sapiens, UniProt P10600); assay: TGF-β3 binding to biotinylated FMOD/FMOD peptides on avidin resin; non-bound TGF-β read by Mv1Lu growth inhibition (MTT)
T2 sequence (P10600 301-412 limits assumed): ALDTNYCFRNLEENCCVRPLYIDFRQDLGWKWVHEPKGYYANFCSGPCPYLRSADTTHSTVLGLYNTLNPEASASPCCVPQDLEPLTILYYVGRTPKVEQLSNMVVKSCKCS
Protocol: (§1) FMOD (whole protein) (SEQ ID NO:1), FMOD peptides and control protein BSA were biotinylated. While, the biotinylated proteins and peptides were bound to commercial available Piece Monomeric Avidin UltraLink Resin (Piece). The amounts of each test peptides/proteins are 1:1, 10:1, 100:1 and 1000:1 to TGF-βs, respectively. After washing out the non-bound residues, appropriate amount TGF-βs (based on the primary test assay) were added to the resin at 4° C. After overnight binding, non-bound TGF-βs were collected, followed by filter sterilization. Then, the TGF-βs residue were diluted 100 times in DEME-0.5% FBS to ensure the concentration was located in the linear region of TGF-βs on Mv1Lu proliferate inhibition.
(§2) Diluted TGF-βs was added to overnight serum-starved Mv1Lu, and fresh TGF-βs media were added for another 24 hour before MTT assay. Samples with no TGF-βs added were employed as controls.

[2] = system: Rat-2 (rat fibroblast cell line) cells; assay: Rat-2 cell proliferation, Click-iT Microplate Assay; format: cell-based; settings: FMOD combined with 100 pM TGF-β1, 48 hours; FIG. 16
Protocol: 2000 cell/well passage 18 Rat-2 (rat fibroblast cell line) cells were seeded in 96-well plates with 200 μl DMEM-10% FBS for 6 hours, followed by overnight serum starving with 200 μl DMEM-0.5% FBS. 200 μl treatment medium, DMEM-0.5% FBS harboring different concentration of FMOD (SEQ ID NO:1), FMOD-F07-C40 peptide with/without 100 pM TGF-βI (SEQ ID NO:64), was added to the well and refreshed on the second day. After 48 hours treatment, proliferation of Rat-2 cells was evaluated by Click-iT® Microplate Assay (Invitrogen).

[3] = system: connective tissue growth factor (CTGF) expression; assay: CTGF expression and cell aggregation in Rat-2 cells, confocal staining; format: cell-based; settings: for CTGF expression: 48 h
Protocol: Results of exemplary tests on each of FMOD and FMOD-P, alone or in combination with TGF-β on CTGF expression are shown in FIGS. 28A-28D. In these tests, 4,000 cells/well passage 18 Rat-2 cells were seeded in 8-well chamber slices in DMEM medium with 10% FBS. After 6 h adhesion, fresh DMEM medium with 0.5% FBS was employed for overnight serum starvation and then treatment media added. Treatment media were changed after 24 h. Cells were fixed and staining at 48 h. Photos were captured at 630× magnifications using a confocal microscope. In these figures, the cells were stained for CTGF (connective tissue growth factor, a factor involved in cell proliferation, migration and matrix production) or DAPI (4′,6-diamidino-2-phenylindole a fluorescent stain that binds strongly to DNA-used for nuclear staining). Merged images showing both CTGF and DAPI staining are also shown.

TGF-β2 = molecular target: T3, TGF-β2 (Homo sapiens, UniProt P61812); assay: TGF-β2 binding to biotinylated FMOD/FMOD peptides on avidin resin; non-bound TGF-β read by Mv1Lu growth inhibition (MTT); settings: ratios 1:1, 10:1, 100:1, 1000:1 to TGF-β; FIG. 14
T3 sequence (P61812 303-414 limits assumed): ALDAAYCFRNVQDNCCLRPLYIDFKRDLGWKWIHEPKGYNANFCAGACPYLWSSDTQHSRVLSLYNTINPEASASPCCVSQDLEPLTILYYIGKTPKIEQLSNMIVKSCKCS
Protocol: as §1, §2

[4] = system: α-smooth muscle actin (α-SMA) expression; assay: α-SMA expression staining; format: cell-based
Protocol: Exemplary tests on effects of FMOD and TGF-β or FMOD peptides and TGF-β on α-SMA expression were performed and shown in FIGS. 25A-25D. Expression levels of α-SMA, which is a marker for the transition of fibroblasts to myofibroblasts, were measured and presented in staining in these figures.

TGF-β1 [5] = molecular target: T1, TGF-β1; assay: TGF-β1 binding to biotinylated FMOD/FMOD peptides on avidin resin; non-bound TGF-β read by Mv1Lu growth inhibition (MTT); settings: ratios 1:1, 10:1, 100:1, 1000:1 to TGF-β; overnight 4° C.; FIG. 13
Protocol: as §1, §2

[6] = 100 pM TGF-β1 and 200 nM FMOD combined treatment
[7] = 100 pM TGF-β1+200 nM Fibromodulin, FIG. 25D

T1 sequence (P01137 279-390 limits assumed): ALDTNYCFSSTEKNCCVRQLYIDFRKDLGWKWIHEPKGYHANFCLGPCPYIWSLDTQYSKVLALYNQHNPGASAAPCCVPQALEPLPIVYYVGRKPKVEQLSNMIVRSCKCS

B1: FMOD: recombinant human fibromodulin whole protein (SEQ ID NO:1) produced in CHO-K1 (protein, listed as Homo sapiens)
chain: MQWTSLLLLAGLFSLSQAQYEDDPHWWFHYLRSQQSTYYDPYDPYPYETYEPYPYGVDEGPAYTYGSPSPPDPRDCPQECDCPPNFPTAMYCDNRNLKYLPFVPSRMKYVYFQNNQITSIQEGVFDNATGLLWIALHGNQITSDKVGRKVFSKLRHLERLYLDHNNLTRMPGPLPRSLRELHLDHNQISRVPNNALEGLENLTALYLQHNEIQEVGSSMRGLRSLILLDLSYNHLRKVPDGLPSALEQLYMEHNNVYTVPDSYFRGAPKLLYVRLSHNSLTNNGLASNTFNSSSLLELDLSYNQLQKIPPVNTNLENLYLQGNRINEFSISSFCTVVDVVNFSKLQVLRLDGNEIKRSAMPADAPLCLRLASLIEI
binding with TGF-β1 in ELISA assay (TGF-β1 [1]): able to bind with TGF-β1 | height of stacked cells in nodules (Rat-2 fibroblasts): about 48 μm | cell density (H&E) (Rat-2 cells; [6]): significantly increased cell density | nodule size (Rat-2 cells; [6]): increased nodule size | nodule number (Rat-2 cells; 100 pM TGF-β1 and 200 nM FMOD combined treatment, 8-well chamber slides): about four | cell morphology (H&E) (Rat-2 cells; 200 nM FMOD alone, FIG. 22): flat, spread-out Rat-2 cell morphology | cell aggregation/density (H&E) (Rat-2 cells; mono-treatment (200 nM FMOD or 100 pM TGF-β1), relative to controls): lower cell aggregation/density relative to controls | rank order of binding to TGF-β isoforms (TGF-β3; comparison of FIGS. 13-15): TGF-β1>TGF-β2>TGF-β3 | TGF-β3 binding (TGF-β3; ratios 1:1, 10:1, 100:1, 1000:1 to TGF-β, FIG. 15): TGF-β3 binding that also expectedly increased with higher FMOD protein ratios up to 1:100 | fibroblast proliferation [2]: significantly increased fibroblast proliferation | cell aggregation ([3]; 100 pM TGF-β1+200 nM FMOD): significant cell aggregation | CTGF expression ([3]; 100 pM TGF-β1+200 nM FMOD, FIG. 21D): significantly higher CTGF expression | cell morphology ([3]; 200 nM FMOD alone, compared to the control group): more flat and spread out when compared to the control group | CTGF expression (green fluorescence) ([3]; TGF-β1/FMOD combo-treatment relative to TGF-β1 mono-treatment, FIG. 24): significantly increases expression of CTGF | cell morphology ([3]; TGF-β1/FMOD combo-treatment, FIG. 24): much more densely packed, aggregated cells with a significant degree of nodule formation | CTGF expression ([3]; mono-treatment (200 nM FMOD or 100 pM TGF-β1), FIGS. 21B, 21C): Minimal CTGF expression | TGF-β2 binding (TGF-β2): TGF-β2 binding that also expectedly increased with higher FMOD protein ratios | cell density/cell aggregation [4, 7]: increased cell density/cell aggregation | α-SMA staining [4, 7]: significantly increased α-SMA staining | α-SMA staining ([4]; mono-treatment (200 nM FMOD or 100 pM TGF-β1), FIGS. 25B, 25C): minimal α-SMA staining | TGF-β1 binding (TGF-β1 [5]): TGF-β1 binding that also increased with higher FMOD protein ratios
